From PMC7691434, “Interaction Analysis of a Plasmodium falciparum PHISTa-like Protein and PfEMP1 Proteins” (Frontiers in Microbiology, 2020)

B1: PF3D7_1372300-(130-206)-GST (domain or fragment)
chain: NQYGKSPPKITWQGCSYDCNMMVSTLETEQTNRFYNLLNKKAPIDEIKSFIRSCIDEFDKLHTDLYVKYEKIFSEQK
notes: PF3D7_1372300, a PHIST/PHISTa-like protein of Plasmodium falciparum, residues 130-206; purified 'according to the methods described above'; also called PF3D7_1372300 (residues 130-206); source: E. coli BL21 (DE3), purified
B2: PF3D7_1372300-(130-206)-GST (domain or fragment)
chain: NQYGKSPPKITWQGCSYDCNMMVSTLETEQTNRFYNLLNKKAPIDEIKSFIRSCIDEFDKLHTDLYVKYEKIFSEQK
notes: PF3D7_1372300, PHIST/PHISTa-like protein of Plasmodium falciparum, residues 130-206; source: E. coli BL21 (DE3), purified (according to the methods described for the other recombinant proteins)
B3: PF3D7_1372300 (27-206 aa)-GST (domain or fragment)
chain: RNEIHKNSLGFGKNDNIYSRNLAQLKLSNYSLLKDSKFESVTEQLTREELYELFDLLVQVPPRTYLLNIWNHKNGICRQGTKDLLKNLRGIAPKLTYRHTGNTNQYGKSPPKITWQGCSYDCNMMVSTLETEQTNRFYNLLNKKAPIDEIKSFIRSCIDEFDKLHTDLYVKYEKIFSEQK
notes: PF3D7_1372300, a PHIST/PHISTa-like protein of Plasmodium falciparum, residues 27-206 (without the 25-residue signal peptide), amplified from P. falciparum cDNA; the reverse primer carries a stop codon; also called PF3D7_1372300-GST; 1372300-GST; source: E. coli BL21 (DE3), purified
B4: PF3D7_1372300 (27-206 aa)-GST (domain or fragment)
chain: RNEIHKNSLGFGKNDNIYSRNLAQLKLSNYSLLKDSKFESVTEQLTREELYELFDLLVQVPPRTYLLNIWNHKNGICRQGTKDLLKNLRGIAPKLTYRHTGNTNQYGKSPPKITWQGCSYDCNMMVSTLETEQTNRFYNLLNKKAPIDEIKSFIRSCIDEFDKLHTDLYVKYEKIFSEQK
notes: PF3D7_1372300, PHIST/PHISTa-like protein of Plasmodium falciparum, residues 27-206 (without the 25 amino acid signal peptide), amplified from P. falciparum cDNA; Cloned into pGEX-4T-1; also called PF3D7_1372300-GST; PHIST/PHISTa-like protein; source: E. coli BL21 (DE3), purified
B5: PF3D7_1372300-(27-129)-GST (domain or fragment)
chain: RNEIHKNSLGFGKNDNIYSRNLAQLKLSNYSLLKDSKFESVTEQLTREELYELFDLLVQVPPRTYLLNIWNHKNGICRQGTKDLLKNLRGIAPKLTYRHTGNT
notes: PF3D7_1372300, a PHIST/PHISTa-like protein of Plasmodium falciparum, residues 27-129; purified 'according to the methods described above'; also called PF3D7_1372300 (residues 27-129); source: E. coli BL21 (DE3), purified
B6: PF3D7_1372300-(27-129)-GST (domain or fragment)
chain: RNEIHKNSLGFGKNDNIYSRNLAQLKLSNYSLLKDSKFESVTEQLTREELYELFDLLVQVPPRTYLLNIWNHKNGICRQGTKDLLKNLRGIAPKLTYRHTGNT
notes: PF3D7_1372300, PHIST/PHISTa-like protein of Plasmodium falciparum, residues 27-129; source: E. coli BL21 (DE3), purified (according to the methods described for the other recombinant proteins)

Key:
[1] = molecular target: PF3D7_0800200 (ATS domain, 2,466-2,858 aa)-His (Plasmodium falciparum) (UniProt Q8IAK2); experiment: BLI; Octet K2; ATS-His loaded onto Ni-NTA biosensors; GST-tagged analyte diluted from 1,000 to 62.5 nM in PBS with 0.02% Tween-20; association and dissociation 5 min each; non-linear global fit
[2] = molecular target: T1, PF3D7_0800200 (acidic C-terminal segment (ATS) domain, 2,466-2,858 aa)-His (Plasmodium falciparum, UniProt Q8IAK2 2466-2858); experiment: BLI; Octet K2 (ForteBio); ATS-His loaded onto Ni-NTA biosensors; GST-tagged protein in solution diluted from 1,000 to 62.5 nM in PBS with 0.02% Tween-20; association and dissociation 5 min each; non-linear global fit; KD calculated as Kdis/Kon; conditions: both partners purified
T1 construct: the reverse primer has no stop codon), which would give a C-terminal His tag; also called ATS-His; PfEMP1 ATS; source: E. coli BL21 (DE3), purified
T1 sequence: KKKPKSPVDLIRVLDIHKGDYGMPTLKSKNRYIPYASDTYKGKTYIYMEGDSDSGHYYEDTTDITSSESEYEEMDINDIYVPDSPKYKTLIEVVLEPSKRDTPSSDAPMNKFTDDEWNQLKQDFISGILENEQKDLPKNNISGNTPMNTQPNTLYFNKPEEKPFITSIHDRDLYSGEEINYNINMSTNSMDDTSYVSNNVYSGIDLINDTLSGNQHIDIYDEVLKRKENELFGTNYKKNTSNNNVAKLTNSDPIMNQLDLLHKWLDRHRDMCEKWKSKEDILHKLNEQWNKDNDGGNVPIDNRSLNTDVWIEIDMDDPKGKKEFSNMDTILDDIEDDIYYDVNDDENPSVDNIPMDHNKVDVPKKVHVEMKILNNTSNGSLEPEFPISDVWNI

[3] = molecular target: T2, PF3D7_0800200 (ATS domain, 2,466-2,858 aa)-His (Plasmodium falciparum, UniProt Q8IAK2 2466-2858); experiment: BLI; Octet K2; ATS-His loaded onto Ni-NTA biosensors; GST-tagged analyte diluted from 1,000 to 62.5 nM in PBS with 0.02% Tween-20; association and dissociation 5 min each; non-linear global fit; conditions: both partners purified
T2 construct: Cloned into pET-28a; also called ATS-His; PfEMP1 ATS; source: E. coli BL21 (DE3), purified
T2 sequence: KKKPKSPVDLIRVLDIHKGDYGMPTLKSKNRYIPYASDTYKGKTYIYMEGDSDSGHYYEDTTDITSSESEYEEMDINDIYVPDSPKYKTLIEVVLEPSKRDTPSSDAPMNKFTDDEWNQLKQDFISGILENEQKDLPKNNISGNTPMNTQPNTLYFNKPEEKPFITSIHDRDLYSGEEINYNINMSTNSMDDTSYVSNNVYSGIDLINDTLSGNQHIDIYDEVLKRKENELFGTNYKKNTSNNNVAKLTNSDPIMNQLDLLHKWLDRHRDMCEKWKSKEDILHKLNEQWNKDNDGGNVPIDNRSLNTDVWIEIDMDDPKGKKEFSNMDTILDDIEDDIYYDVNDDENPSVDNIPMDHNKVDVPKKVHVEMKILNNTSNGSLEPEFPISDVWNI

Row | Molecule | Kd [1] [nM] | koff [2] [s⁻¹] | kon [2] [M⁻¹ s⁻¹] | Kd [3] [nM]
1 | GST | < 0.001 |  |  | 
2 | B1 |  | 0.000158 | 6960 | 
3 | B2 |  |  |  | 22.6
4 | B3 |  | 0.000756 | 6330 | 
5 | B4 |  |  |  | 119
6 | B5 |  | 0.000844 | 6630 | 
7 | B6 |  |  |  | 127
